Source: publication doi:10.64898/2025.12.08.692910 (bioRxiv, 2025)

B1: Helicobacter pylori UreE(1-148), C-terminal truncation variant (domain or fragment, UniProt Q09064 1-148, looked up)
chain: MIIERLVGNLRDLNPLDFSVDHVDLEWFETRKKIARFKTRQGKDIAIRLKDAPKLGLSQGDILFKEEKEIIAVNILDSEVIHIQAKSVAEVAKICYEIGNRHAALYYGESQFEFKTPFEKPTLALLEKLGVQNRVLSSKLDSKERLTV
B2: Helicobacter pylori UreG (enzyme)
chain: MVKIGVCGPVGSGKTALIEALTRHMSKDYDMAVITNDIYTKEDAEFMCKNSVMPRERIIGVETGGCPHTAIREDASMNLEAVEEMHGRFPNLELLLIESGGDNLSATFNPELADFTIFVIDVAEGDKIPRKGGPGITRSDLLVINKIDLAPYVGADLKVMERDSKKMRGEKPFIFTNIRAKEGLDDVIAWIKRNALLED
B3: Helicobacter pylori HypA with C-terminal Strep-tag II (HypAstr) (natural protein, UniProt P0A0U4 1-117, looked up)
chain: MHEYSVVSSLIALCEEHAKKNQAHKIERVVVGIGERSAMDKSLFVSAFETFREESLVCKDAILDIVDEKVELECKDCSHVFKPNALDYGVCEKCHSKNVIITQGNEMRLLSLEMLAE
B4: Helicobacter pylori UreE(1-158), C-terminal truncation variant (domain or fragment, UniProt Q09064 1-158, looked up)
chain: MIIERLVGNLRDLNPLDFSVDHVDLEWFETRKKIARFKTRQGKDIAIRLKDAPKLGLSQGDILFKEEKEIIAVNILDSEVIHIQAKSVAEVAKICYEIGNRHAALYYGESQFEFKTPFEKPTLALLEKLGVQNRVLSSKLDSKERLTVSMPHSEPNFK

Experiments:
Helicobacter pylori UreG = molecular target: B2; assay: crystal structure
crystal structure = molecular target: the molecule itself; assay: crystal structure
[1] = molecular target: T1, Helicobacter pylori UreE, wild-type (residues 1-170) (Helicobacter pylori, UniProt Q09064 1-170); assay: pull-down
T1 sequence (looked up): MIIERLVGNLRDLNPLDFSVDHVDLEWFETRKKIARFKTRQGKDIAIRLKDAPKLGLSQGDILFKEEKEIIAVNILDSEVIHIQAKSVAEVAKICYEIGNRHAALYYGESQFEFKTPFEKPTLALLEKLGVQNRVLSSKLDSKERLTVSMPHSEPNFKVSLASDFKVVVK

Row | Binder | binding result (Helicobacter pylori UreG) | binding result (crystal structure) | binding result [1]
1 | B1 | binds | binds | 
2 | B2 |  | binds | 
3 | B3 |  |  | binds
4 | B4 | binds | binds | 
